Data reported in patent US20190367631A1 (Regeneron, published 2019).
Numbering of substitutions follows the chain as printed. Names and notes keep the numbering of the source.

T1: full length human MSR1 with a C-terminal Myc tag, on HEK293.Myc.hMSR1 cells (human, UniProt P21757 1-451)
T1 sequence (looked up): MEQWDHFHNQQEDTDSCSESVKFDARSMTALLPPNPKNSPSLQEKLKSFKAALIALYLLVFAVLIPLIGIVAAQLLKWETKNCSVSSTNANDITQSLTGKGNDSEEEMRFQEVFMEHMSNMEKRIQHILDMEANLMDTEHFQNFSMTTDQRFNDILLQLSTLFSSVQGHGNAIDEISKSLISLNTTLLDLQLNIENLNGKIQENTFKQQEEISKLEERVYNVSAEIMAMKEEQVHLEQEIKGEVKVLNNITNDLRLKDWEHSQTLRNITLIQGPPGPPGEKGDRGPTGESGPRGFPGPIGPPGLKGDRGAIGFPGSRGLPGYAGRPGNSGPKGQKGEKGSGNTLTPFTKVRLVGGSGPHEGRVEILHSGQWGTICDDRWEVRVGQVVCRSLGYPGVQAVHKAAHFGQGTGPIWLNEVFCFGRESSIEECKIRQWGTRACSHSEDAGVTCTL

T2: human MSR1 extracellular domain expressed with a N-terminal nonahistidine tag (His9-hMSR1); R&D Systems, Cat … (human, UniProt P21757 77-451)
T2 construct: extracellular domain; Bought reagent; also called His-hMSR1; 9xHis-hMSR1
T2 sequence: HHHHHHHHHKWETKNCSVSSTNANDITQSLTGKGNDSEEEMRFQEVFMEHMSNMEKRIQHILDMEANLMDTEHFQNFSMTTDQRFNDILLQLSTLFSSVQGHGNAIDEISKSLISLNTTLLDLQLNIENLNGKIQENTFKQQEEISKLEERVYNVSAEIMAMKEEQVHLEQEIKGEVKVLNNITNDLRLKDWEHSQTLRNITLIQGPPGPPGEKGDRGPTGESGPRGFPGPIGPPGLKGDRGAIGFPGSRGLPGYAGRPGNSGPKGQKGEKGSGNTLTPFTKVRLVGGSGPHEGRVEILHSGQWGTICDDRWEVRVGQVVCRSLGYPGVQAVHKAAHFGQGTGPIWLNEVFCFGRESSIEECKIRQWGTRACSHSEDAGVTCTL

T3: human MSR1 extracellular domain expressed with a N-terminal nonahistidine tag (His9-hMSR1); R&D Systems, Cat … (human, UniProt P21757 77-451)
T3 construct: extracellular domain; also called His-hMSR1; 9xHis-hMSR1; not shown: N-terminal nonahistidine tag
T3 sequence (looked up): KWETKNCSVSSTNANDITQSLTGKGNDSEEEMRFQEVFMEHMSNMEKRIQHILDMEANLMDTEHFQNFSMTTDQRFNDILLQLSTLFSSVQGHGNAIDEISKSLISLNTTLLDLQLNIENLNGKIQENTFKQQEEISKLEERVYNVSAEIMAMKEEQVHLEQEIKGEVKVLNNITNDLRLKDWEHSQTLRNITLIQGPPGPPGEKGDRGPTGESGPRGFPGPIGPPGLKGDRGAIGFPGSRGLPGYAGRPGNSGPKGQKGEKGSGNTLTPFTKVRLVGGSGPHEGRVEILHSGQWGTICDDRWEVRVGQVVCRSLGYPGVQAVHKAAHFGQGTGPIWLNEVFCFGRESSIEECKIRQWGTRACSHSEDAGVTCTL

T4: monkey MSR1 extracellular domain expressed with a N-terminal hexahistidine-myc-myc tag (HMM-mfMSR1) (monkey (Macaca fascicularis))
T4 chain: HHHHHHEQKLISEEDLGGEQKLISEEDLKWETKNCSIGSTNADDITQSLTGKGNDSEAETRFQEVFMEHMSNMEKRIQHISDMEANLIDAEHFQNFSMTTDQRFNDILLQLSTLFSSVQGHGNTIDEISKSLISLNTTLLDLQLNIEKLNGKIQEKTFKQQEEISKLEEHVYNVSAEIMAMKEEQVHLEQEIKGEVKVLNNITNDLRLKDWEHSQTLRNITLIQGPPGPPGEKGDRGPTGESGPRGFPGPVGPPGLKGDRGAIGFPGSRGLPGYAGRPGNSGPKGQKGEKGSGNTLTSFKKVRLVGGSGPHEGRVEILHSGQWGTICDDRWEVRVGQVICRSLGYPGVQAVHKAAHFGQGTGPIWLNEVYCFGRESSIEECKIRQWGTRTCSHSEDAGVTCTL

B1: H2aM21227N (antibody, mouse IgG2a, V domains shown)
VH: QVQLVQSGAEVKKPGASVKVSCKVSGYTLTELSIHWVRQVPGKGLEWMGGFDPEEGETIFAQEFRDRVTLTEDTSPDTAYMELSSLKSEDAAVYYCTTPRYCNNGICYDYWGQGTLVTVSS
VL: DIQMTQSPSSLSASVGDRVTITCRASQSISNYLNWYQQKPGKAPKLLIYTASSLQSGVPSRFSGSGSGTDFTLTISSLQTEDFATYYCQQSYSNFPITFGQGTRLEIKR
B2: H1M21231N (antibody, V domains shown)
VH: EVQLVESGGGLVQPGGSLRLSCAASGFTFSDHYMDWVRQAPGKGLEWVGRTRNKANSHTTEYTASVTGRFTISRDDSRNSLYLQMNSLKTEDTAVYYCVRAGIIGTLFDYWGQGTLVTVSS
VL: B1 VL with S7F, N31S, Y32F, Y36F, L46F, T50A, T80P, N94S, F95P
B3: H2bM21234N (antibody, V domains shown)
VH: QVQLQESGPGLVKPSETLSLTCTVTGGSISRNYWSWIRQPPGKGLEWIGYIYYSGSIDYNPSLKSRVTISVDTSKNQFSLKLSSMTAADTAVYYCARDRWNWKYGMDVWGQGTTVIVSS
VL: EIVLTQSPGTLSLSPGERATLSCRASQTVRNNYLAWYHQKPGQAPRLLIYGASSRATGIPDRFSGSGSGTDFTLTISRLEPEDFTVYYCHQYGNSPWTFGQGTKMEIKR
B4: H2aM21235N (antibody, mouse IgG2a, V domains shown)
VH: B2 VH with H58Y, T63A, T67S, R78K, V99T
VL: DIQMTQSPSSLSASVGDRVTITCRASQIIGRYLNWFQQKPGKVPKLLIYAASSLQRGVPSRFSGSGSGTDFTLTISSLQPEDFATYYCQQSYNTPPITFGQGTRLEIKR
B5: H1H27760P-N297Q-LP1 (antibody, human IgG1, V domains shown)
VH: EVQLVESGGGLVQPGRSLRLSCAASGFTFDAYAMHWVRQAPGKGLEWVSGISWNSGSIGYADSVKGRFTISRDNAKNSLYLQMNSLREEDTALYYCAKDKILELYYYGMDVWGQGTTVTVSS
VL: not shown
modifications: LXR agonist linker-payload LP1 clicked to azido-PEG3-amine on Q295 and Q297 (EU) of the heavy chain constant region
notes: antibody-drug conjugate; human IgG1 Fc with N297Q (EU)
B6: H1H27761P-N297Q (antibody, human IgG1, V domains shown)
VH: EVQLVESGGDLVQPGGSLRLSCSASGFTFNIYAMSWVRQAPGKGLEWVSGISGSGGSTYYADSVKGRFTISRDNSKNTLYFQMNSLRVEDTAVYYCAKKISSSSYYYYAMDVWGQGTTVTVSS
VL: not shown
notes: human IgG1 Fc with N297Q (EU); also called H1H27761P2-N297Q
B7: H1H27761P-N297Q-LP1 (antibody, human IgG1, V domains shown)
VH: B6 VH
VL: not shown
modifications: LXR agonist linker-payload LP1 clicked to azido-PEG3-amine on Q295 and Q297 (EU) of the heavy chain constant region
notes: as for B5
B8: H1H27762P-N297Q (antibody, human IgG1, V domains shown)
VH: QVQLVQSGAEVKKPGSSVKVSCKASGGTFSRYDISWVRQAPGQGLEWMGGIIPIFGTSNYAQKFQGRVTITTDESTSTVYMELSSLRSEDTAVYYCARGGRYGWFDPWGQGTLVTVSS
VL: not shown
notes: human IgG1 Fc with N297Q (EU); also called H1H27762P2-N297Q
B9: H1xH29283P2 (antibody, V domains shown)
VH: B8 VH with A9T, D33T, I34F, S58T, A97T
VL: not shown
notes: the prefix H1xH is not explained; captured by anti-human Fc
B10: H1H27762P-N297Q-LP1 (antibody, human IgG1, V domains shown)
VH: B8 VH
VL: not shown
modifications: LXR agonist linker-payload LP1 clicked to azido-PEG3-amine on Q295 and Q297 (EU) of the heavy chain constant region
notes: antibody-drug conjugate; human IgG1 Fc with N297Q (EU); also called H1H27762P2-LP1
B11: H1H27766P-N297Q-LP1 (antibody, human IgG1, V domains shown)
VH: EVQLVESGGGLVQPGGSLRLSCAASGFTFSSFAMSWVRQAPGKELEWVSSISGRGGSTYYADSVRGRFTISRDNSKITLYLQMNSLRAEDTAVYYCAKDIVFRYTSSAYWYFDLWGRGTLVTVSS
VL: not shown
modifications: LXR agonist linker-payload LP1 clicked to azido-PEG3-amine on Q295 and Q297 (EU) of the heavy chain constant region
notes: antibody-drug conjugate; human IgG1 Fc with N297Q (EU); also called H1H27766P2-LP1
B12: H1xH29273P2 (antibody, V domains shown)
VH: QVQLVESGGGVVQSGRSLRLSCAAAGFTFSNYGMHWVRQAPGKGLEWVALMSFDGSDKYYADSVKGRFTISRDNSKNTLYLQMNSLRAEDTALYYCAKGYDFWSGYWDYWGQGTLVTVSS
VL: not shown
notes: as for B9
B13: H1xH29282P2 (antibody, V domains shown)
VH: EVQLVESGGGLVQPGGSLRLSCAASGFTFSTYAMSWVRQAPGKGLEWVSTISGRSDITYFADSVKGRFTVSRDNSKTTLYLQMNSLRAEDTAVYYCATDDDLPLDYWGQGTLVTVSS
VL: not shown
notes: as for B9
B14: H1H27761P-N297Q (antibody, V domains shown)
VH: B6 VH
VL: not shown
notes: Human IgG1 Fc with N297Q; tied by the numerical identifier; also called H1H27761P2-N297Q; H1H27761P2

How the values were obtained:
[1] = molecular target: T1, full length human MSR1 with a …; test: cell-based or functional assay
[2] = molecular target: T2, human MSR1 extracellular domain …; test: SPR Biacore T200, 25 C, antibody captured by anti-human Fc, His9-hMSR1 injected;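 also: running buffer HBS-ET pH 7.4, rates from sensorgrams fitted to a 1:1 model including mass transport limitation, KD and half-life derived from the kinetic constants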
Experimental: All binding studies were performed in 10 mM HEPES, 300 mM NaCl, 3 mM EDTA, and 0.05% v/v Surfactant Tween-20, pH 7.4 (HBS-ET) running buffer at 25° C.
(§1) The association rate (kₐ) and dissociation rate (kd) were determined by fitting the real-time binding sensorgrams to a 1:1 binding model with mass transport limitation using Scrubber 2.0c curve-fitting software. Binding dissociation equilibrium constant (KD) and dissociative half-life (t½) were calculated from the kinetic rates as:

[3] = molecular target: T3, human MSR1 extracellular domain …; test: SPR Biacore, 25 C, antibody captured;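 also: rates from 1:1 fit with mass transport limitation of real-time sensorgrams, HEPES-buffered saline with EDTA and Tween-20 at pH 7.4, KD and t½ derived from the kinetic rates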
Experimental: (§2) Binding affinities and kinetic constants of human anti-MSR1 antibodies for different MSR1 reagents were determined by real-time surface plasmon resonance (Biacore 4000). All binding studies were performed in 10 mM HEPES, 150 mM NaCl, 3 mM EDTA, and 0.05% v/v Surfactant Tween-20, pH 7.4 (HBS-ET) running buffer at 25° C. and 37° C.
as §1

[4] = molecular target: T4, monkey MSR1 extracellular domain …; test: SPR Biacore, 25 C, antibody captured;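 also: rates from 1:1 fit with mass transport limitation of real-time sensorgrams, HEPES-buffered saline with EDTA and Tween-20 at pH 7.4, KD and t½ derived from the kinetic rates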
Experimental: as §2, §1

[5] = molecular target: T3, human MSR1 extracellular domain …; test: SPR Biacore, 37 C, antibody captured
Experimental: as §2, §1

[6] = molecular target: T4, monkey MSR1 extracellular domain …; test: SPR Biacore, 37 C, antibody captured
Experimental: as §2, §1
For % Inhibition of Dil-Acetylated LDL uptake in this document: test concentration or dose not given here.
For % Inhibition of Dil-Oxidized LDL uptake in this document: test concentration or dose not given here.

Binder	Kd [2]	koff [2]	kon [2]	t½ [2]	also measured
B1	–	–	–	–	% Inhibition of Dil-Acetylated LDL uptake [1]: 62%; % Inhibition of Dil-Oxidized LDL uptake [1]: 90%; IC50 of Dil-Acetylated LDL uptake inhibition [1]: 3.7 nM; IC50 of Dil-Oxidized LDL uptake inhibition [1]: 3.1 nM
B2	–	–	–	–	% Inhibition of Dil-Acetylated LDL uptake [1]: 50%; % Inhibition of Dil-Oxidized LDL uptake [1]: 79%; IC50 of Dil-Acetylated LDL uptake inhibition [1]: > 20 nM; IC50 of Dil-Oxidized LDL uptake inhibition [1]: 3.7 nM
B3	–	–	–	–	% Inhibition of Dil-Acetylated LDL uptake [1]: 19%; % Inhibition of Dil-Oxidized LDL uptake [1]: 61%; IC50 of Dil-Acetylated LDL uptake inhibition [1]: 1.8 nM; IC50 of Dil-Oxidized LDL uptake inhibition [1]: 4.5 nM
B4	–	–	–	–	% Inhibition of Dil-Acetylated LDL uptake [1]: 24%; % Inhibition of Dil-Oxidized LDL uptake [1]: 64%; IC50 of Dil-Acetylated LDL uptake inhibition [1]: > 100 nM
B5	1.67 nM	0.000434 s⁻¹	259000 M⁻¹ s⁻¹	26.6 min	–
B6	0.609 nM	0.000362 s⁻¹	595000 M⁻¹ s⁻¹	31.9 min	–
B7	2.02 nM	0.000511 s⁻¹	253000 M⁻¹ s⁻¹	22.6 min	–
B8	1.38 nM	0.00056 s⁻¹	405000 M⁻¹ s⁻¹	20.6 min	–
B9	13.4 nM	0.00185 s⁻¹	139000 M⁻¹ s⁻¹	6.2 min	–
B10	1.29 nM	0.000623 s⁻¹	483000 M⁻¹ s⁻¹	18.5 min	–
B11	0.0649 nM	2.7e-05 s⁻¹	416000 M⁻¹ s⁻¹	427 min	–
B12	93 nM	0.00763 s⁻¹	82000 M⁻¹ s⁻¹	1.5 min	–
B13	43.7 nM	0.00362 s⁻¹	82800 M⁻¹ s⁻¹	3.2 min	–
B14	–	–	–	–	Kd [3]: 1.63 nM; koff [3]: 0.00051 s⁻¹; kon [3]: 312000 M⁻¹ s⁻¹; t½ [3]: 23 min; Kd [4]: 1.88 nM; koff [4]: 0.000597 s⁻¹; kon [4]: 318000 M⁻¹ s⁻¹; t½ [4]: 19 min; Kd [5]: 3.26 nM; koff [5]: 0.00222 s⁻¹; kon [5]: 681000 M⁻¹ s⁻¹; t½ [5]: 5 min; Kd [6]: 2.32 nM; koff [6]: 0.00214 s⁻¹; kon [6]: 920000 M⁻¹ s⁻¹; t½ [6]: 5 min
